This note sets out measurements from patent US20260201058A1 (SICHUAN HUIYU PHARMACEUTICAL, published 2026).

The target of assay [1] is T1, monkey PD-L1 (Cyno-PD-L1) on cells (monkey (cyno)).
T1 construct: whole, on cells; also called CHO-cynoPDL1; 293F-cyno PD-L1 cells
Briefly: flow cytometry competition on CHO-cynoPDL1 cells, competitor monkey PD-1-hFc 1.25 ug/mL. Here is the method:
(§1) CHO-huPDL1, CHO-mPDL1, and CHO-cynoPDL1 cells were respectively taken, washed with PBS, and resuspended with 1% BSA. Then 1×10⁵ cells per well were added to a 96-well V-bottom plate. […] After washing with PBS, PE anti-human Fc (Biolegend, 410708) was added and incubated on ice for 30 min. After washing with PBS, a flow cytometer was used for detection. IC₅₀ was fitted with experimental data by GraphPad Prism.

Assay [2] concerns the target T2, mouse PD-L1 on CHO-mPDL1 cells (mouse, UniProt Q9EP73 19-290).
T2 construct: whole, on cells
Description: flow cytometry competition on CHO-mPDL1 cells, competitor mouse PD-1-hFc 1.25 ug/mL. The method, then: as §1

In assay [3] the target is T3, human PD-L1 protein (ACRO, PD1-H5258) (human, UniProt Q9NZQ7 19-238).
T3 construct: Bought protein; also called Human PDL1-Fc
Briefly: Carterra HC30M chip, nanobody captured via anti-DYKDDDDK, PD-L1 as analyte. The text has this: (§2) Kinetic constants were obtained by fitting with Carteria software.

Assay [4] addresses T4, monkey PD-L1 protein (Kactus Biosystems, PDL-CM210) (monkey).
T4 construct: Bought protein; also called Monkey PDL1-Fc
The description is as above.
Text: as §2

The target in assay [5] is T5, mouse PD-L1 protein (ACRO, PD1-M5251) (mouse, UniProt Q9EP73 19-238).
T5 construct: Bought protein; also called Mouse PDL1-Fc
Described as above.
Text: as §2

In assay [6] the target is T6, human PD-L1 on CHO-huPDL1 cells (human, UniProt Q9NZQ7 19-290).
T6 construct: whole, on cells; also called CHO-hPDL1
Description: flow cytometry competition on CHO-huPDL1 cells, competitor human PD-1-hFc 1.25 ug/mL. Here is the method: as §1

For assay [7], the target named is T1, monkey PD-L1 (Cyno-PD-L1) on cells. Briefly: flow cytometry competition on 293F-cyno PD-L1 cells, competitor monkey PD-1-hFc 1.25 ug/mL. The text has this:
(§3) After washing with PBS, a flow cytometer was used for detection. IC₅₀ was fitted with experimental data by GraphPad Prism.

The target in assay [8] is T7, human PD-L1 on GS-C2 cells (cells overexpressing human PD-L1, GenScript, M00613) (human, UniProt Q9NZQ7 19-290). Description: cell-based or functional assay.
The target of assay [9] is T7, human PD-L1 on GS-C2 cells (cells …). Briefly: flow cytometry competition on GS-C2 cells, competitor human PD-1-mFc 1.25 ug/mL.
Text: as §3

Assay [10] has as its target T3, human PD-L1 protein (ACRO, PD1-H5258). Briefly: SPR (Carterra LSA), nanobody on NiHC200M chip via His-Tag, PD-L1 as analyte. The method, then:
The measurement was conducted using a capture kinetics process. The test antibody was immobilized on the surface of the NiHC200M chip via His-Tag. After several rounds of blank buffer injection and stabilizing the detection baseline, human PD-L1 protein was injected as the analyte. Each round of injection consisted of 2 minutes of baseline, 8 minutes of binding, and 20 minutes of dissociation. After subtracting the reference point and zero concentration signal (Double Reference) from the original measurement data, the binding curve was fitted by Carterra LSA Kinetics software and the kinetic parameters were calculated.

Assay [11] deals with T7, human PD-L1 on GS-C2 cells (cells …). Description: flow cytometry on GS-C2 cells. Here is the method:
Then PE-labeled goat anti-Flag fluorescent secondary antibody was added, and incubated on ice for 30 min. After washing with PBS, a flow cytometer was used for detection. EC₅₀ was fitted with the experimental data by GraphPad Prism.

Assay [12] has the same target. Briefly: cell-based or functional assay. The source holds these as a separate data set.
Assay [13] has the same target. Description: flow cytometry competition on GS-C2 cells, competitor human PD-1-mFc 1.25 ug/mL. The text has this: (§4) After washing with PBS, a flow cytometer was used for detection.
This is another data set of the same source.

In assay [14] the target is T1, monkey PD-L1 (Cyno-PD-L1) on cells. Briefly: flow cytometry on 293F-cyno PD-L1 cells.
Text: as §4

The target in assay [15] is T7, human PD-L1 on GS-C2 cells (cells …). Description: flow cytometry on GS-C2 cells.
Text: as §4
The source holds these as a separate data set.

For assay [16], the target named is T3, human PD-L1 protein (ACRO, PD1-H5258). Briefly: Carterra HC30M chip, antibody captured via anti-DYKDDDDK, PD-L1 as analyte. Here is the method:
(§5) The anti-[…] antibody was bound to the HC30M chip via amino coupling, then […] of humanized PD-L1 single-domain antibody was captured. After the baseline was stabilized, gradient diluted human PD-L1 protein (ACRO, PD1-H5258) and monkey PD-L1 protein (Kactus Biosystems, PDL-CM210) (starting from 100 nM, gradient dilution) were flowed over the chip from low to high concentrations, with a binding time of 8 minutes and a dissociation time of 20 minutes. Kinetic constants were obtained by fitting with Carteria software.

Assay [17] concerns the target T4, monkey PD-L1 protein (Kactus …). Described as above. Here is the method:
as §5

Numbering of substitutions follows the chain as printed. Like-named read-outs stand apart in the source and are kept apart here.

T3 sequence (Q9NZQ7 19-238): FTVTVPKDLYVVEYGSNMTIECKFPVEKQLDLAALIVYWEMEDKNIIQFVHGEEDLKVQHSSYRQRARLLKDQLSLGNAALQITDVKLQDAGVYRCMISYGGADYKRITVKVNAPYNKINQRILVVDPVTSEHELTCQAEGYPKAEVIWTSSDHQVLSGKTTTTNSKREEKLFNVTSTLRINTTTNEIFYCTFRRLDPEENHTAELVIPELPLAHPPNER
T7 sequence (Q9NZQ7 19-290, one chain of several): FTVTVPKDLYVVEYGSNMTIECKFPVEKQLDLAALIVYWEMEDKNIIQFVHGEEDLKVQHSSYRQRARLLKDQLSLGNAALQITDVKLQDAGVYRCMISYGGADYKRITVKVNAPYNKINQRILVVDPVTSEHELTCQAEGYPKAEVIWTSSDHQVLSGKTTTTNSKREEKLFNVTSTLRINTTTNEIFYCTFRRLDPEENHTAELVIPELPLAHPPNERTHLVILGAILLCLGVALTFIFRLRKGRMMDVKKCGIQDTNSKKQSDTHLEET
T2 sequence (Q9EP73 19-290): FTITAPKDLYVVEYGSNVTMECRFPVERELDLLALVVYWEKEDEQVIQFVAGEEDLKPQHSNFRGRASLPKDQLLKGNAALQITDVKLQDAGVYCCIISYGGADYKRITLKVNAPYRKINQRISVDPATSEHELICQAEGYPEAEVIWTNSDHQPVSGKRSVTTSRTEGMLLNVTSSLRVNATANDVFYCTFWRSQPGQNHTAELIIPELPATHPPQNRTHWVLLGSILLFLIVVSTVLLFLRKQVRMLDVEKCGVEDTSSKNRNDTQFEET
T5 sequence (Q9EP73 19-238): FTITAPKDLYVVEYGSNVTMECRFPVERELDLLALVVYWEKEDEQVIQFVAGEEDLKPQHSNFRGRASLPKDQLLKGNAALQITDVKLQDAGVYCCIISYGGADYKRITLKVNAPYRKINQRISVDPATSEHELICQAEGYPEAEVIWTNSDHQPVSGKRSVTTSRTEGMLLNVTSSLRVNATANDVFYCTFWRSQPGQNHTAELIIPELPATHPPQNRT
T6 sequence (Q9NZQ7 19-290): as the sequence (Q9NZQ7 19-290, one chain of several) above

B1: 4A7 nanobody (VHH)
VHH: EVQLVESGGGLVQAGDSLRLGCAASGRTFSTNVMGWFRQAPGKEREFVSAISRAGSTYSADSVKGRFTISRDNAENTVYLQMNSLKPEDTAVYYCAAGSSPTAIFGKSGMDYWGKGTLVTVSS
notes: Prokaryotically expressed VHH; also called anti-PD-L1 nanobody 4A7
For B1, the results for the IC50 in assay [1], in assay [2] and in assay [6] were 3.55 nM, 1.83 nM and 1.35 nM, respectively. Moreover, the Kd in assay [3] stood at 147 nM; in assay [4], 221 nM; in assay [5], 99.1 nM.

B2: 260-7-B11 nanobody (VHH)
VHH: EVQLVESGGGLVQAGGSLRLSCAASGGTFLTYGMGWFRQAPGKEREFVAAINWSGSMTNYADSVKGRSTISRDNARNTVYLQMISLKPEDTAVYYCAAKTGAVAYIQKNEYDYWGQGTQVTVSS
notes: Prokaryotically expressed VHH
B2: the figures for the IC50 in [7] and in assay [9] were 0.627 nM and 0.396 nM, respectively. In addition, the “EC50 (nM), blocking of T cell PD-1/PD-L1 signaling pathway (GS-C2 cells with Jurket-NFAT-PD1 cells, luciferase)” value (“EC50 (nM), blocking” below) in assay [8] is 15.3 nM. In assay [10], binding was characterised by a dissociation constant (Kd) of 0.0243 nM. Besides, in assay [11], the EC50 amounted to 0.739 nM.

B3: 7B11 (Fc fusion)
chain: EVQLVESGGGLVQAGGSLRLSCAASGGTFLTYGMGWFRQAPGKEREFVAAINWSGSMTNYADSVKGRSTISRDNARNTVYLQMISLKPEDTAVYYCAAKTGAVAYIQKNEYDYWGQGTQVTVSSGGGGSGGGGSDKTHTCPPCPAPEAAGAPSVFLFPPKPKDTLMISRTPEVTCVVVDVSHEDPEVKFNWYVDGVEVHNAKTKPREEQYNSTYRVVSVLTVLHQDWLNGKEYKCAVSNKALPAPIEKTISKAKGQPREPQVYTLPPSRDELTKNQVSLTCLVKGFYPSDIAVEWESNGQPENNYKTTPPVLDSDGSFFLYSKLTVDKSRWQQGNVFSCSVMHEALHNHYTQKSLSLSP
notes: also called 7B11 VHH-Fc antibody (260-7-B11 fused to human IgG1 Fc)
In the case of B3, the “EC50 (nM), blocking” value in assay [12] is 2.11 nM. Moreover, the IC50 in assay [13] amounted to 0.221 nM. Also, the EC50 in assay [14] turned out to be 1.58 nM; in assay [15] it was 0.642 nM.

B4: 7B11_huGS_HM1 (Fc fusion)
chain: B3 chain with A14P, E44G, R45L, S68F, R76K, I84N, K87R, P88A, Q119L
notes: Humanized VHH-Fc antibody
Take B4: the Kd worked out at 0.0294 nM in assay [16] and 0.0252 nM in assay [17].

B5: 7B11_huBSM_HM1 (Fc fusion)
chain: B3 chain with E44G, R45L, E46V, S68F, R76K, I84R, K87T, P88S
notes: Humanized VHH-Fc antibody
With B5, the dissociation constant Kd in assay [16] amounted to 0.0382 nM; in assay [17], 0.0347 nM.

B6: 7B11_huGS1 (Fc fusion)
chain: EVQLVESGGGLVQPGGSLRLSCAASGGTFLTYGMGWVRQAPGKGLEWVAAINWSGSMTNYADSVKGRFTISRDNAKNTVYLQMNSLRAEDTAVYYCAAKTGAVAYIQKNEYDYWGQGTLVTVSSGGGGSGGGGSDKTHTCPPCPAPEAAGAPSVFLFPPKPKDTLMISRTPEVTCVVVDVSHEDPEVKFNWYVDGVEVHNAKTKPREEQYNSTYRVVSVLTVLHQDWLNGKEYKCAVSNKALPAPIEKTISKAKGQPREPQVYTLPPSRDELTKNQVSLTCLVKGFYPSDIAVEWESNGQPENNYKTTPPVLDSDGSFFLYSKLTVDKSRWQQGNVFSCSVMHEALHNHYTQKSLSLSP
notes: Humanized VHH-Fc antibody
As to B6, the dissociation constant (Kd) in [16] is 0.0815 nM; in [17], 0.0588 nM.

B7: 7B11_huGS_HM4 (Fc fusion)
chain: B6 chain with V37F, W47F, L119Q
notes: Humanized VHH-Fc antibody
With B7, the “EC50 (nM), blocking” value in assay [12] came to 1.97 nM. In [13], this molecule returned an IC50 of 0.24 nM. Also, the values for the EC50 in assay [14] and in assay [15] were 2 nM and 0.729 nM, respectively. In addition, the values for the Kd in assay [16] and in assay [17] were 0.035 nM and 0.0326 nM, respectively.

B8: 7B11_huBSM_HM2 (Fc fusion)
chain: B3 chain with S68F, R76K, I84R, K87T, P88S, Q119L
notes: Humanized VHH-Fc antibody
Regarding B8, the equilibrium dissociation constant (Kd) was found to be 0.0362 nM in assay [16] and 0.0307 nM in [17].

B9: 7B11_huBSM1 (Fc fusion)
chain: B3 chain with E46V, S68F, R76K, I84R, K87T, P88S
notes: Humanized VHH-Fc antibody
Consider B9, for which the Kd worked out at 0.0372 nM in assay [16] and 0.0294 nM in [17].
